Key:
Test in all cases: cell_activity; U937 RT-PCR; also edits KRAS in HEK293
[1] = target: pb76 DLRRR (7-zinc finger array + triple R element) (artificial)
Text: (§1) As described above, each plasmid, pb74, pb75, and pb76 was introduced into U937 cells by electroporation. A “no DNA” transfection was used as control. […] post electroporation, cells transfected with these plasmids were detached and collected. Total RNAs from each condition were then extracted by using Trizol reagent. Five hundred nanograms of total RNA was then converted into DNA by reverse transcription (RT) reaction, followed by PCR using a primer set of Pop133 (SEQ ID. NO. 228) and Pop134 (SEQ ID. NO. 229). Three independent experiments were conducted. KRAS mRNA expression was quantitated by calculations of amplification band intensity of RT-PCR KRAS normalized by corresponding that of Ref-BMG using Bio-Rad Imagelab software. Introduction of pb74 (DLR), ob75 (DLRR), and pb76 (DLRRR) inhibit KRAS gene expression more than 50%.

[2] = target: pb75 DLRR (7-zinc finger array + double R element) (artificial)
Text: as §1

[3] = target: pb74 DLR (7-zinc finger array + single R element) (artificial)
Text: as §1

Measured: activity

Chain of pb74 DLR (7-zinc finger array + single R element) (artificial) (chain, as listed by the source): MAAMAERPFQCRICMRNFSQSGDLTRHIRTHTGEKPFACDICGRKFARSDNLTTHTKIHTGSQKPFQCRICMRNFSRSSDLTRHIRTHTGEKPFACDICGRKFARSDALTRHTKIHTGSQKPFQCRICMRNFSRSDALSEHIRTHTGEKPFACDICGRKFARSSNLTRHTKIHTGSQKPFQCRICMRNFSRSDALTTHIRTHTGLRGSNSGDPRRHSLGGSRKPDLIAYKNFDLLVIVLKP
Chain of pb76 DLRRR (7-zinc finger array + triple R element) (artificial) (chain, as listed by the source): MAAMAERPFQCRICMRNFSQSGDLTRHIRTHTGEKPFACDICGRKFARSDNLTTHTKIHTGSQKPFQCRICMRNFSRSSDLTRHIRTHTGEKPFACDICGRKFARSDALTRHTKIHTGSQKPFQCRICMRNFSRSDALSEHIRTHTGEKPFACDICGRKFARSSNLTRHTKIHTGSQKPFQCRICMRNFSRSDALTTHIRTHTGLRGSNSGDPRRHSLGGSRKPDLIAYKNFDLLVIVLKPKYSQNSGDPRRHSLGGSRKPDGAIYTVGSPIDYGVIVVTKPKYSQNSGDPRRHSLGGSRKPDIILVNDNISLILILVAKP
Chain of pb75 DLRR (7-zinc finger array + double R element) (artificial) (chain, as listed by the source): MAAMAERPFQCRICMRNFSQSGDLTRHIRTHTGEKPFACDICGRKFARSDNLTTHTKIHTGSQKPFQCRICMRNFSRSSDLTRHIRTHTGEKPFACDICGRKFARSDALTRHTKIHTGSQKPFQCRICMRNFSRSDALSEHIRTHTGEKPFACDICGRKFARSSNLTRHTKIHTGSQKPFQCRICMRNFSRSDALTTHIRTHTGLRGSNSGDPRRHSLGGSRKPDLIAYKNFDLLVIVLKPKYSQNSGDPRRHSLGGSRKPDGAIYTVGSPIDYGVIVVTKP

B1: KRAS exon 1 site (dsDNA)
DNA 1: TTGGAGCTGGTGGCGTAGGCA
DNA 2: TGCCTACGCCACCAGCTCCAA
> 50 % inhibition of KRAS mRNA: all assays above
